Laboratory results: patent US20230140200A1 (TRUSTEES OF COLUMBIA UNIVERSITY IN THE CITY OF NEW YORK, published 2023)

What was measured:
[1] = target: T1, human transferrin receptor protein 1 (TfR1) (human, UniProt P02786 1-760); assay: immunoprecipitation with 3F3-FMA from HT-1080 cell lysate and mass spectrometry; staining lost after siRNA knockdown of TfR1
T1 construct: whole, on cells; Endogenous full-length protein of human cell lines; no recombinant construct was used; also called transferrin receptor 1; CD71
Method: The beads were used for mass spectrometry.
Trypsin digestion was performed overnight at 37° C. Supernatants were collected and dried down in a speed-vac, and peptides were dissolved in a solution containing 3% acetonitrile and 0.1% formic acid. Peptides were desalted with C18 disk-packed stage-tips. Desalted peptides were injected onto an EASY-Spray PepMap RSLC C18 50 cm×75 μm column (Thermo Scientific), which was coupled to the Orbitrap Fusion Tribrid mass spectrometer (Thermo Scientific). Peptides were eluted with a non-linear 110 min gradient of 5-30% buffer B (0.1% (v/v) formic acid, 100% acetonitrile) at a flow rate of 250 nl/min. The column temperature was maintained at a constant 50° C. during all experiments. Thermo Scientific™ Orbitrap Fusion™ Tribrid™ mass spectrometer was used for peptide MS/MS analysis. Survey scans of peptide precursors were performed from 400 to 1575 m/z at 120K FWHM resolution (at 200 m/z) with a 2×10⁵ ion count target and a maximum injection time of 50 ms. […] CID fragmentation was applied with 35% collision energy and resulting fragments were detected using the rapid scan rate in the ion trap. […]
The antigen of 3F3-FMA was identified using immunoprecipitation and mass spectrometry. […] Then magnetic beads were added and washed, and bead-immobilized proteins were analyzed by mass spectrometry. […]

mouse TfR1 protein = target: T2, mouse TfR1 protein (mouse, UniProt Q62351 1-763); assay: immunofluorescence on normal mouse liver frozen tissue sections
T2 construct: whole, on cells; Endogenous protein in mouse tissue sections
T2 sequence (Q62351 whole entry): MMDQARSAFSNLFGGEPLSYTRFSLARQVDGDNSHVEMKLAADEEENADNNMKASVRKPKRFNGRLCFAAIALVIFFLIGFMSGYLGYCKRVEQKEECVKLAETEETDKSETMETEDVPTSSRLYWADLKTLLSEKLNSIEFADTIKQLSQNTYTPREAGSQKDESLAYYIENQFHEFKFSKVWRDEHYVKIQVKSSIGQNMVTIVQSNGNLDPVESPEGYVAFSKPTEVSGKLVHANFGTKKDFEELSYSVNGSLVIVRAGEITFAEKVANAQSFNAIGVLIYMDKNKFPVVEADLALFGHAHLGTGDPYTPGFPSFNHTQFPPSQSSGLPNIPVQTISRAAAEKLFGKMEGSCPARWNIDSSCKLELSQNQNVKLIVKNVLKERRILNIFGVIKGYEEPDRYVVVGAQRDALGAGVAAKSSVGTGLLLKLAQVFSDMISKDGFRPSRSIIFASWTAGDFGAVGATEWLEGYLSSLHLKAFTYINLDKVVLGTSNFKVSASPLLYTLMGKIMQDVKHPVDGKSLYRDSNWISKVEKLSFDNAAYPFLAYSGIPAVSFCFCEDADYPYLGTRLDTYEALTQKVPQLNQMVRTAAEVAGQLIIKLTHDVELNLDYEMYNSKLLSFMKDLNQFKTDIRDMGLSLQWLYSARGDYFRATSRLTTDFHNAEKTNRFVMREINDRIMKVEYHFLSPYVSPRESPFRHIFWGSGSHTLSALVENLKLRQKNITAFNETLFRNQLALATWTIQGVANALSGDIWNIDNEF

T1 sequence (P02786 whole entry): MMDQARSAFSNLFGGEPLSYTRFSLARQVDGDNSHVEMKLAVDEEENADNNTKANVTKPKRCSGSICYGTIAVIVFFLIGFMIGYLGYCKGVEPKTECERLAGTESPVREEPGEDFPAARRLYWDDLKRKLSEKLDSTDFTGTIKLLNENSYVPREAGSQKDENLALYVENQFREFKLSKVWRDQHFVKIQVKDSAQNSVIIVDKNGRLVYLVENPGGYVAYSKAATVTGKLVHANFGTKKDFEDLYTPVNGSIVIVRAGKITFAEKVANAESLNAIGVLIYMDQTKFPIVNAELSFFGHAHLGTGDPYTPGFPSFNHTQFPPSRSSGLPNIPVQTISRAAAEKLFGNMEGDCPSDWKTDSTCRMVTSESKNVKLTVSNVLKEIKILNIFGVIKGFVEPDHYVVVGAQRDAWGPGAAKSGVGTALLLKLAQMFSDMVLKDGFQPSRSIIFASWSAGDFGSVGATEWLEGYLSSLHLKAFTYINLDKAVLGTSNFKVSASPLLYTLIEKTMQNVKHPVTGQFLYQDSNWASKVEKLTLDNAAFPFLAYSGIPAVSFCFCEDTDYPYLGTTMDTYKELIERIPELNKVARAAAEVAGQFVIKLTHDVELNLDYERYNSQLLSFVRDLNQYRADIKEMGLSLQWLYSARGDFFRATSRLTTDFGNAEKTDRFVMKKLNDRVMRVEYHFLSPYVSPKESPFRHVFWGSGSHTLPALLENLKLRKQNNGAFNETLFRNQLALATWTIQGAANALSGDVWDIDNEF

B1: 3F3 anti-Ferroptotic Membrane Antibody (3F3-FMA) (antibody, V domains shown)
VH: EVLLQQSGTELVRPGALVKLSCKASGFNIQDLYIHWVKQRPEQGLEWIGWIDPETDNTIYDPKFQGKASITADTSSNTAYLQLSSLTSEDTAMYYCSTGLLQWYFDVWGAGTAVTVSS
VL: DIVMTQSPSSLAMSIGQKVTMRCKSSQSLLNSYNQKNCLAWYQQKPGQSPKLLLYFVSTRESGVPDRFIGSGSGTDFTLTISSVQAEDLADYFCQQHYSTPLTFGAGTKLELK
notes: the entries 1 and 2 should match these; also called mAb 3F3 FMA; clone FH3F3
B1: binds [1]; binds (mouse TfR1 protein).
